assay: yeast display, Sf9 membrane polyspecificity reagent, FACS + sequencing; frameworks hold sequencing errors
How it was run: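 A nanobody's polyreactivity label depends on the gate it was sorted from. Yeast display cells were stained with 10% biotinylated, detergent-solubilized Sf9 membrane reagent for 1 hour at 4 °C, enriched on streptavidin microbeads and sorted by FACS. The low and high (top ~1%) gates were set on anti-HA fluorescence for expression and streptavidin fluorescence for reagent binding.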

| Sequence | polyreactivity (PSR sort gate) |
| --- | --- |
| QVQLVESGGGLVQAGGSLRLSCAASGRIFIVNAMGWYRQATGKERELVAAISYRGGSTYYADSVKGRFTISRDNAKNTVYLQMNRLKPEDTAVYYCAADRYSYLGYPYEYEYWGQGTQVTVSS | low polyreactivity |
| QVQLVESGGGLVQAGGSLRLSCAASGRIFIVYAMGRYRQAPGKERELVAAISWNGGRTYYADSVKGRFTISRDNAKNTVYLQMNSLKPEDTAVYYCNAVALYPYTTYDYWGQGTQVTVSS | high polyreactivity |
| QVQLVESGGGLVQAGGSLRLSCAASGRIFIVYAMGWYRQAPGKERELVATISWSGGSTYYADSVKGRFTISRDNAKNTVYLQMTSLKPEDTAVYYCAADYRWVDSDSSLFYWYDYWGQGTQVTVSS | high polyreactivity |
| QVQLVESGGGLVQAGGSLRLSCAASGRIFIWYAMGWYRQAPGKDRELVAAISTDGSPYYADSVKGRFTISRDNAKNTVYLQMNSLKPEDTAVYYCAAVPGYTHLWGGPFDYWGQGTQVTVSS | low polyreactivity |
| QVQLVESGGGLVQAGGSLRLSCAASGRIFIYAMGWYRQAPGKERELVAAISWSGGSTYYADSVKGRFTISRDNAKNTVYLQMNSLKPEDTAVYYCAADYEGWGYDYRGDYWGQGSQVTVSS | low polyreactivity |
| QVQLVESGGGLVQAGGSLRLSCAASGRIFIYKAMGWYRQAPGKERELVAAISSSGTSTYYADSVKGRFTISRDNAKNTVYLQKNSLKPEDTAVYYCNAVYNYRWYSQGYYWGQGTQVTVSS | high polyreactivity |
| QVQLVESGGGLVQAGGSLRLSCAASGRIFIYNAMGWYRQAPGKEREFVAAISRTGGNTYYADSVKGRFTISRDNAKNTVYLQMNSLKPEDTAVYYCATKRKWTYLSYDYWGQGTQVTVSS | low polyreactivity |
| QVQLVESGGGLVQAGGSLRLSCAASGRIFIYNAMGWYRQAPGKERELVAAINRSGVSTHYADSVKGRFTISRDHAKNTVYLQMNSLKPEDTAVYYCARTVYGARSYDYWGQGTQVTVSS | low polyreactivity |
| QVQLVESGGGLVQAGGSLRLSCAASGRIFIYNAMGWYTQAPGKERELVAAINRSGVSTHYADSVKGRFTISRDNAKNSVYLQMNSLKPEDTAVYYCARTVYGARSYDYWGQGTQVTVSS | low polyreactivity |
| QVQLVESGGGLVQAGGSLRLSCAASGRIFKFNAMGWYRQAPGKEMELVAATWSGGRTYYSDSVKGRFTISRDNAKYTVYLQMNCLKPEDTAVYYCNAADSSWYVLYGSYYRSGLDYWGQGTQVTVSS | low polyreactivity |
| QVQLVESGGGLVQAGGSLRLSCAASGRIFKGYSMGGYRQAPGTETELVASIRTGGTTNYADSVKGRFTISRDNAKNTVYLQMNSLKPEDTAVYYCNRGYYSYYGRYYYWGQGTQVTVSS | high polyreactivity |
| QVQLVESGGGLVQAGGSLRLSCAASGRIFKINAMGWYRPAPGKERELVAGISGSGSDTYYADSVKGRFTISRDNAKNTVYLQMNSLKPEDTAVYYCAATVVQYYDRDYWGQGTQVTVSS | low polyreactivity |
| QVQLVESGGGLVQAGGSLRLSCAASGRIFKKYAMGWYRQAPGKERELVATISSGGSTYYADSVKGRFTISRDNAKNTVYLQMNSLKPEDTAVYYCARREYVRRDYFVTTYDYWGQGTQVTVSS | low polyreactivity |
| QVQLVESGGGLVQAGGSLRLSCAASGRIFKLNDMGWYRQAPGKERELVAAITRGTGSTYADSVKGRFTISRDNAMNTVYLQMNSLKPEDTAVYDCATRYSYRRLSFPRPDEMEYWGQGTQVTVSS | low polyreactivity |
| QVQLVESGGGLVQAGGSLRLSCAASGRIFKPNAMGGSRQAPGKEREFVARITRNTGSTYYADSVKGRFTISRDNAKNTVYLQMNSLKPEDTAVYYCAARFYRRNRFNYWGQGTLVTVSS | high polyreactivity |
| QVQLVESGGGLVQAGGSLRLSCAASGRIFKQYAMGWYRQAPGKEREFVAAISSRGTRTYYADSVKGRFTISRDNAKNTVYLQMISLKPEDTAVYYCNAVQAQAAYEYWGQGTQVTVSS | high polyreactivity |
| QVQLVESGGGLVQAGGSLRLSCAASGRIFKRNAMGWYRQAPGKERELVAAISYSGGSTYYADSVKGRFTISRDNAKQTVYLQMNSLKPEDTAVYYCAVDRYPTGITKYDYWGQGTLVTVSS | high polyreactivity |
| QVQLVESGGGLVQAGGSLRLSCAASGRIFKRNAMGWYRQAPGKERELVATISGSGGSTYYADSVKGRFTISRDNAKNTVYIQMNRLQPEDTAVYYCSATGFFARLSTIYYYWGQGTQVTVTS | high polyreactivity |
| QVQLVESGGGLVQAGGSLRLSCAASGRIFKRYAMGWYRQAPGKERELVAAIRTSDGITYYADSVKGRFTISRDNAKNTVYLQMNSLKPEDTAVYYCNADLSKAERWGQGTQVTVSS | low polyreactivity |
| QVQLVESGGGLVQAGGSLRLSCAASGRIFKRYAMGWYRQAPGKERELVAAITRGGSTNYADSVKGRFTISRDNAKNSVYLQMYSLKPEYTAVYYCAATTSRPYRSRYYYWGQGTQVTVSS | high polyreactivity |

| Sequence | polyreactivity (PSR sort gate) |
| --- | --- |
| QVQLVESGGGLVQAGGSLRLSCAASGRIFKRYTLGWYRPAPAKERELVAAITKRADRTNYADSVKGRFTISRDNAKNTVYLQMNSLKPEDTAVYDCNAEGQNDHPSNGYISYKYDYWGQGTQVTVSS | low polyreactivity |
| QVQLVESGGGLVQAGGSLRLSCAASGRIFKRYVMGWYRQAPGKERELVSAISVRGASTYYADSVKGRFTISRDNAKNTVYLQMNSLKPEDTAVYYCATAGYRLLDYWGQGTQVTVSS | high polyreactivity |
| QVQLVESGGGLVQAGGSLRLSCAASGRIFKSYAMGGYRHAPGKERELVAAISSGDDTYYADSVKGRFTISRDNAKNTVYLQMNSLKQEDTAVYYCAADYWGWIYLYGDYLVDYWGQGTQVTVSS | low polyreactivity |
| QVQLVESGGGLVQAGGSLRLSCAASGRIFKSYAMGWYRQAPGKERELVAAISRSGGRTYYADSVKGRFTISRDNAKNTVYLQMNSLKPEDTAVYYCAATTFVAPYLGQGTQVTVSS | low polyreactivity |
| QVQLVESGGGLVQAGGSLRLSCAASGRIFKSYAMGWYRQAPGKERELVAAISSGDDTYYADSVKGRFTISRDNAKNTVYLQMNSLKPEDTAVYYCAADYWGWLYLYGDYLVDYWGQGTQVTVSS | low polyreactivity |
| QVQLVESGGGLVQAGGSLRLSCAASGRIFKSYAMGWYRQAPGKERELVAGITSGGGTYYADSLKGRFTISRDNAKTTVYLQMNSLKPEDTPVYYCATRTYRESTYDYWGQGTQVTVSS | high polyreactivity |
| QVQLVESGGGLVQAGGSLRLSCAASGRIFKSYAMGWYRQAPGKERELVASITWSGGRTYYADSVKGRFTISRDNAKNTVYLQMNSLIPEDTAVYYCAARTYSYGSILKYYYWGQGTQVTVSS | high polyreactivity |
| QVQLVESGGGLVQAGGSLRLSCAASGRIFKTYAMGWYRPAPGKERELVAAITASGGRTYYADSVKGRFTISRDNAKNTVYLQMNSLKPEDTAVYYCAKRPSYYARNSAYAYLSYGYWGQGTQVTVSS | low polyreactivity |
| QVQLVESGGGLVQAGGSLRLSCAASGRIFKVNTMGWYRQAPGKVRELVASIRGGGSTNYADSVKGRFTISRDNAKNTVYLQMNSLKPEDTAVYYCAAGTSKPTPIYGYWGQGTQVTGSS | low polyreactivity |
| QVQLVESGGGLVQAGGSLRLSCAASGRIFKVYAMGWYRQAPGKERELVATISRGGSTYYADSVKGRFTISRDNAKNTVYLQMNSLKPEDTAVYYCAKQRERYYWFGAWSYDYWGQGTQVTVSS | low polyreactivity |
| QVQLVESGGGLVQAGGSLRLSCAASGRIFKVYAMGWYRQAPGKERELVAVITGGGSTNYADSVKGRFTISRDNAKNTVYLQMNSLKPEDTAVYYCATEGYGHGGETDGGVYSDLGYWGQGTQVTVSS | low polyreactivity |
| QVQLVESGGGLVQAGGSLRLSCAASGRIFKWNAMGWYRQAPGKERELVAAIRWSGTSTYADSVKGRFTISRDNAKNTVYLQMNSLKPEDTAVYYCAASKRYTVGVRAFGKHDYWGQGTQVTVSS | low polyreactivity |
| QVQLVESGGGLVQAGGSLRLSCAASGRIFKWNAMGWYRQAPGKERELVAAITYRDDTTYYADSVKGRFTISRDNAKNTVYLQMNSLKPEDTAVYYCNAAWRPCRPFRGFTEGEYDYWGQGTQVTVSS | low polyreactivity |
| QVQLVESGGGLVQAGGSLRLSCAASGRIFKWYAMGWYRQAPGKERELVAAITSGGGSTYYADSVKGRFTISRDNAKNTVYLQMNSLKPEDTAVYYCAVKGYRRWGYDYWGQGTQVTVSS | high polyreactivity |
| QVQLVESGGGLVQAGGSLRLSCAASGRIFKYNAMGWYRQAPGKERELLAAITRGGSTNYADSVKGRFTISRDNAKNTVYLQMNSLKPEDTAVYYCAALRSRYGRDMDYWGQGTQVTVSS | high polyreactivity |
| QVQLVESGGGLVQAGGSLRLSCAASGRIFKYYAMGGYRQAPGKERELVAAISGSGGSTFYADSVKGRFTISRDNAKNTVYLQMNSLKPEDSALYYCNADEVVWGYNYWGQVTQVTVSS | low polyreactivity |
| QVQLVESGGGLVQAGGSLRLSCAASGRIFKYYAMGWSRQAPGKERELVPAINRDGGRTYYADSVKGRFTISRDNAKNTVYLQMNSLTPEETAVYYCAASYGYVYTTSLDYWGQGTQVTVSS | low polyreactivity |
| QVQLVESGGGLVQAGGSLRLSCAASGRIFLFYAMGWYRTAPGKERELVAGIRSGGSTNYADSVKGRFTISRDNAKNTVYLQMNSLKQEDTAVYYSAAASYFVYPRLEGYWGQGTQVTVSS | low polyreactivity |
| QVQLVESGGGLVQAGGSLRLSCAASGRIFLGNALGWYRQPPGNERELVAAITYSGRSTYYADSVKGRFTISRDHAKNTVYLQMNSLKPEDTAVYFCAARQYWTTDLPFQRYYYWGQGTQVTVSS | low polyreactivity |
| QVQLVESGGGLVQAGGSLRLSCAASGRIFLGNAMGWYRQAPGKERDLVAAITNGGGSTYYADSVKGRFTISRDNAKNTVYLQMNSLKPEDTAVYYCARGYKKSVQRFEYWGQGTQVTVSS | high polyreactivity |
